In patent US20240132578A1:

Legend:
Experiment in all cases: cell-based or functional assay
[1] = biological target: HIV-1 Env of isolate 92WR026 (pseudovirus) (HIV-1)
[2] = biological target: HIV-1 Env of isolate MGRM-G-017 (subtype G) (HIV-1)
[3] = biological target: HIV-1 Env of isolate MGRM-D-002 (HIV-1)
[4] = biological target: HIV-1 Env of isolate MGRM-G-013 (subtype G) (HIV-1)
[5] = biological target: HIV-1 Env of pseudovirus isolate MGRM-C-017 (clade C) (HIV-1)
[6] = biological target: HIV-1 Env of pseudovirus isolate MGRM-C-020 (clade C) (HIV-1)
[7] = biological target: HIV-1 Env of pseudovirus isolate MGRM-C-027 (clade C) (HIV-1)
[8] = biological target: HIV-1 Env of isolate MGRM-AE-004 (subtype AE) (HIV-1)
[9] = biological target: HIV-1 Env of pseudovirus isolate MGRM-C-006 (clade C) (HIV-1)
[10] = biological target: HIV-1 Env of isolate MGRM-D-014 (pseudovirus) (HIV-1)
[11] = biological target: HIV-1 Env of isolate MGRM-AG-001 (subtype AG) (HIV-1)
[12] = biological target: HIV-1 Env of isolate 92UG001 (pseudovirus) (HIV-1)
[13] = biological target: HIV-1 Env of isolate MGRM-F1-021 (HIV-1)
[14] = biological target: HIV-1 Env of isolate MGRM-AG-006 (subtype AG) (HIV-1)
[15] = biological target: HIV-1 Env of isolate MGRM-AE-003 (subtype AE) (HIV-1)
[16] = biological target: HIV-1 JR-CSF Env L416A (HIV-1 (isolate JR-CSF)) (UniProt P20871)
[17] = biological target: HIV-1 JR-CSF Env D417A (HIV-1 (isolate JR-CSF)) (UniProt P20871)
[18] = biological target: HIV-1 Env of pseudovirus isolate MGRM-C-007 (clade C) (HIV-1)
[19] = biological target: HIV-1 Env of pseudovirus isolate MGRM-C-015 (clade C) (HIV-1)
[20] = biological target: HIV-1 Env of isolate MGRM-D-012 (pseudovirus) (HIV-1)
[21] = biological target: HIV-1 Env of isolate MGRM-D-029 (HIV-1)
[22] = biological target: HIV-1 envelope glycoprotein (Env) of isolate MG RM-AG-006 (HIV-1)
[23] = biological target: HIV-1 Env of pseudovirus MGRM-D-024 (HIV-1)
[24] = biological target: HIV-1 Env of pseudovirus MGRM-F1-020 (HIV-1)
[25] = biological target: HIV-1 Env of pseudovirus MGRM-F1-012 (HIV-1)

4995_E20 (PGT-142) (antibody), sequence (VH): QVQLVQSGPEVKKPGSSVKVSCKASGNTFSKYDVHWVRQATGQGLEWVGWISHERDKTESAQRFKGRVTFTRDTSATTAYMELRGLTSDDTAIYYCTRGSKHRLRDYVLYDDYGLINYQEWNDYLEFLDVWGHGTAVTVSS
4995_E20 (PGT-142) (antibody), sequence (VL): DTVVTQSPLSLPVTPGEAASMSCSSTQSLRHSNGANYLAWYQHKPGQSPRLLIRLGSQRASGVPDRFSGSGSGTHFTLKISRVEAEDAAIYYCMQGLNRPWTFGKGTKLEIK
4980_N08 (PGT-143) (antibody), sequence (VH): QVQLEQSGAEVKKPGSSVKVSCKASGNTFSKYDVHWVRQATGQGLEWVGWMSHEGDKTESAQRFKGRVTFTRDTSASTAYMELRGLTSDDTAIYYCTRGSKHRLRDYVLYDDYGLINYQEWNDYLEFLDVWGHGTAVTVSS
4980_N08 (PGT-143) (antibody), sequence (VL): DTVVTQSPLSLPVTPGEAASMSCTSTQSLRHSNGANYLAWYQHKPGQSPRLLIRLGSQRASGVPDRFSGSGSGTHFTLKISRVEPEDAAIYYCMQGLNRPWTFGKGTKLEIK
PGT-145 (4995_P16) (antibody), sequence (VH): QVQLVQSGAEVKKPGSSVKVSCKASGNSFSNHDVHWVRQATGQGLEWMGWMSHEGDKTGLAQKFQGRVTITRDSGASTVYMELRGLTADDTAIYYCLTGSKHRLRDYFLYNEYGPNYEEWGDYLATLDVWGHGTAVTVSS
PGT-145 (4995_P16) (antibody), sequence (VL): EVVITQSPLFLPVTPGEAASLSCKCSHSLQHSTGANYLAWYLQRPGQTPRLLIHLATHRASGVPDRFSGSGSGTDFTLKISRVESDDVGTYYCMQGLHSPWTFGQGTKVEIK
4970_K22 (PGT-144) (antibody), sequence (VH): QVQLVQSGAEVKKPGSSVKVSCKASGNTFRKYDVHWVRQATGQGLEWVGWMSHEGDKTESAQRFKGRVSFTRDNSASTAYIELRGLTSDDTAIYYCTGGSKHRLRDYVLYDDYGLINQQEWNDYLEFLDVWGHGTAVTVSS
4970_K22 (PGT-144) (antibody), sequence (VL): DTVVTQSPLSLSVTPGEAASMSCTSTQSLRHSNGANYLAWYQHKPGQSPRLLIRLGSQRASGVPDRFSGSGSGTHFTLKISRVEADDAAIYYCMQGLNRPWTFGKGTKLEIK
4993_K13 (PGT-141) (antibody), sequence (VH): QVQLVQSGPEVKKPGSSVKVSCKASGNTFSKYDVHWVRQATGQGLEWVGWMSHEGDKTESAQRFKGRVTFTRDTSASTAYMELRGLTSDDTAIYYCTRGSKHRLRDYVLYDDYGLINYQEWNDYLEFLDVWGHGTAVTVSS

Row | Substance | IC50 (µg/mL), single-round pseudovirus neutralization [1] | IC50 (µg/mL), pseudovirus neutralization [2] | IC50 (µg/mL), pseudovirus neutralization [3] | IC50 (µg/mL), pseudovirus neutralization [4] | IC50 (µg/mL), pseudovirus neutralization [1] | IC50, pseudovirus neutralization [5] | IC50, pseudovirus neutralization [6] | IC50, pseudovirus neutralization [7] | IC50, pseudovirus neutralization [8] | IC50, pseudovirus neutralization [9] | IC50 (µg/mL), pseudovirus neutralization [10] | IC50, pseudovirus neutralization [11] | IC50 (µg/mL), pseudovirus neutralization [12] | IC50 (µg/mL), pseudovirus neutralization [13] | IC50, pseudovirus neutralization [14] | IC50, pseudovirus neutralization [15] | IC50 [22] | IC50, pseudovirus neutralization [23] | IC50, pseudovirus neutralization [24] | IC50, pseudovirus neutralization [25] | other results
1 | 4970_K22 (PGT-144) (antibody) | 32.7 µg/mL | 9.97 µg/mL | > 50 µg/mL | > 50 µg/mL |  |  |  |  |  |  |  |  |  |  |  |  |  |  |  |  | 
2 | 4980_N08 (PGT-143) (antibody) | 5.36 µg/mL | 0.107 µg/mL | > 50 µg/mL | > 50 µg/mL |  |  |  |  |  |  |  |  |  |  |  |  |  |  |  |  | 
3 | 4993_K13 (PGT-141) (antibody) | 1.78 µg/mL | 0.164 µg/mL | > 50 µg/mL | > 50 µg/mL |  |  |  |  |  |  |  |  |  |  |  |  |  |  |  |  | 
4 | 4995_E20 (PGT-142) (antibody) | 1.78 µg/mL | 0.125 µg/mL | > 50 µg/mL | > 50 µg/mL |  |  |  |  |  |  |  |  |  |  |  |  |  |  |  |  | 
5 | 4995_P16 (PGT-145) (antibody) | 1.45 µg/mL | 0.205 µg/mL | > 50 µg/mL | > 50 µg/mL |  |  |  |  |  |  |  |  |  |  |  |  |  |  |  |  | 
6 | 5114_A19 (PGT-128) (antibody) |  |  |  |  | 0.01 µg/mL | 1.06 µg/mL | 5.85 µg/mL | 0.081 µg/mL | > 50 µg/mL | 0.014 µg/mL | 0.013 µg/mL | 4.73 µg/mL | > 50 µg/mL | > 50 µg/mL | 0.009 µg/mL | 0.18 µg/mL |  |  |  |  | Fold IC50 increase relative to wild-type (pseudovirus neutralization) [16]: 1.1 fold; Fold IC50 increase relative to wild-type (pseudovirus neutralization) [17]: 0.5 fold; IC50, pseudovirus neutralization [18]: 0.111 µg/mL; IC50, pseudovirus neutralization [19]: 0.196 µg/mL; IC50 (µg/mL), pseudovirus neutralization [20]: > 50 µg/mL; IC50 (µg/mL), pseudovirus neutralization [21]: > 50 µg/mL
7 | 5136_H01 (PGT-131) (antibody) |  |  |  |  | 0.041 µg/mL | > 50 µg/mL | > 50 µg/mL | 0.065 µg/mL | > 50 µg/mL | 0.611 µg/mL | 0.516 µg/mL | > 50 µg/mL | > 50 µg/mL | > 50 µg/mL | 0.019 µg/mL | 1.41 µg/mL |  |  |  |  | Fold IC50 increase relative to wild-type (pseudovirus neutralization) [16]: 1 fold; Fold IC50 increase relative to wild-type (pseudovirus neutralization) [17]: 1 fold; IC50, pseudovirus neutralization [18]: > 50 µg/mL; IC50, pseudovirus neutralization [19]: 1.01 µg/mL; IC50 (µg/mL), pseudovirus neutralization [20]: > 50 µg/mL; IC50 (µg/mL), pseudovirus neutralization [21]: > 50 µg/mL
8 | 5147_N06 (PGT-130) (antibody) |  |  |  |  | 0.037 µg/mL | > 50 µg/mL | > 50 µg/mL | 0.008 µg/mL | 2.43 µg/mL | 0.095 µg/mL | 0.061 µg/mL | > 50 µg/mL | > 50 µg/mL | > 50 µg/mL | 0.009 µg/mL | 0.337 µg/mL |  |  |  |  | Fold IC50 increase relative to wild-type (pseudovirus neutralization) [16]: 1 fold; Fold IC50 increase relative to wild-type (pseudovirus neutralization) [17]: 1 fold; IC50, pseudovirus neutralization [18]: > 50 µg/mL; IC50, pseudovirus neutralization [19]: 0.344 µg/mL; IC50 (µg/mL), pseudovirus neutralization [20]: > 50 µg/mL; IC50 (µg/mL), pseudovirus neutralization [21]: > 50 µg/mL
9 | 5343_B08 (PGT-135) (antibody) |  |  |  |  | 0.068 µg/mL | > 50 µg/mL | > 50 µg/mL | > 50 µg/mL | > 50 µg/mL | > 50 µg/mL | 2.21 µg/mL | > 50 µg/mL | > 50 µg/mL | 0.065 µg/mL | 17.9 µg/mL | > 50 µg/mL |  |  |  |  | Fold IC50 increase relative to wild-type (pseudovirus neutralization) [16]: 1.2 fold; Fold IC50 increase relative to wild-type (pseudovirus neutralization) [17]: 5 fold; IC50, pseudovirus neutralization [18]: > 50 µg/mL; IC50, pseudovirus neutralization [19]: 0.104 µg/mL; IC50 (µg/mL), pseudovirus neutralization [20]: > 50 µg/mL; IC50 (µg/mL), pseudovirus neutralization [21]: 30.8 µg/mL
10 | 5345_I01 (PGT-137) (antibody) |  |  |  |  | 0.092 µg/mL | > 50 µg/mL | > 50 µg/mL | > 50 µg/mL | > 50 µg/mL | > 50 µg/mL | > 50 µg/mL | > 50 µg/mL | > 50 µg/mL | > 50 µg/mL | 28.3 µg/mL | > 50 µg/mL |  |  |  |  | IC50, pseudovirus neutralization [18]: > 50 µg/mL; IC50, pseudovirus neutralization [19]: 1.98 µg/mL; IC50 (µg/mL), pseudovirus neutralization [20]: > 50 µg/mL; IC50 (µg/mL), pseudovirus neutralization [21]: > 50 µg/mL
11 | PGT-141 (4964_G22; 4993_K13) (antibody) |  |  |  |  |  |  |  |  |  |  |  |  |  |  |  |  | > 50 µg/mL | > 50 µg/mL | 1.15 µg/mL | > 50 µg/mL | 
12 | PGT-142 (4995_E20) (antibody) |  |  |  |  |  |  |  |  |  |  |  |  |  |  |  |  | > 50 µg/mL | > 50 µg/mL | 0.824 µg/mL | > 50 µg/mL | 
13 | PGT-143 (4980_N08) (antibody) |  |  |  |  |  |  |  |  |  |  |  |  |  |  |  |  | > 50 µg/mL | > 50 µg/mL | 0.98 µg/mL | > 50 µg/mL | 
14 | PGT-144 (4970_K22) (antibody) |  |  |  |  |  |  |  |  |  |  |  |  |  |  |  |  | > 50 µg/mL | > 50 µg/mL | 8.93 µg/mL | > 50 µg/mL | 
15 | PGT-145 (4995_P16) (antibody) |  |  |  |  |  |  |  |  |  |  |  |  |  |  |  |  | 6.6 µg/mL | 0.224 µg/mL | 0.816 µg/mL | 0.113 µg/mL | 
16 | VRC01 (antibody) |  | 0.124 µg/mL | 0.252 µg/mL | 0.553 µg/mL |  |  |  |  |  |  |  |  |  |  |  |  | 0.344 µg/mL | 0.366 µg/mL | 1.89 µg/mL | 0.488 µg/mL | 
